# Source: patent US20140087995A1 (published 2014)
# Numbered stars: 1 amine (or outer) side, 2 acyl side, 3 side chain; on linkers, the order of the positions; unused ones are H or OH. Bridge positions count the residues as written; N and C are the ends. Side chains are listed from the residue outwards. Ends that are not written are not given here. * marks the point of attachment. C20 diacid = O=C(O)CCCCCCCCCCCCCCCCCCC(=O)*; γGlu = O=C(O)[C@H](CCC(=O)[*:2])N[*:1]; AEEA = NCCOCCOCC(=O)O
# T1: human amylin receptor (amylin 3(a) receptor: human calcitonin receptor co-expressed with RAMP-3) (human, UniProt P30988 25-474; O60896 24-148, limits assumed)
# T1 sequence (looked up) 1: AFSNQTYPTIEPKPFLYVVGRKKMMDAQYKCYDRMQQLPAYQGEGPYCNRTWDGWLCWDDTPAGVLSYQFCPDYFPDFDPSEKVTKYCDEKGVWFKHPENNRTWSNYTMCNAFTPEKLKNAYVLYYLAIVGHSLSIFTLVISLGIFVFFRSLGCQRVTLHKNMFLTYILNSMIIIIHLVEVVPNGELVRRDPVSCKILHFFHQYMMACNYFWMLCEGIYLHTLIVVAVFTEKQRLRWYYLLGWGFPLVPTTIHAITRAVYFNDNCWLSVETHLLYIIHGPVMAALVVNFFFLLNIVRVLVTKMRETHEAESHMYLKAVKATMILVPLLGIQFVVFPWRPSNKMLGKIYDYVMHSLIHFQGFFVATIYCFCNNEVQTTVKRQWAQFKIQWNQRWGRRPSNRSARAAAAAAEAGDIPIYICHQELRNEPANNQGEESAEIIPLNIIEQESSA
# T1 sequence (looked up) 2: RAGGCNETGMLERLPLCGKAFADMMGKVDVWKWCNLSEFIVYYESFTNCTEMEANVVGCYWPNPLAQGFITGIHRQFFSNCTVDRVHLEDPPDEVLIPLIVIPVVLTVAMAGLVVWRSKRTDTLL
# T2: human calcitonin receptor (human, UniProt P30988 25-474)
# T2 sequence (looked up): T1 sequence (looked up) 1
# B1: N^ε1-[2-[2-[2-[[(4S)-4-carboxy-4-(19-carboxynonadecanoylamino)butanoyl]amino]ethoxy]ethoxy]acetyl]-[Ser14,Arg17,Pro21,Pro27,Pro31]-h-amylin (peptide)
# peptide: K([AEEA-γGlu-C20 diacid])CNTATCATQRLASFLRHSSPNFGAIPSSTPVGSNTY-NH2
# modifications: disulfide 2-7; N-terminus assumed
# SMILES: CC[C@H](C)[C@H](NC(=O)[C@H](C)NC(=O)CNC(=O)[C@H](Cc1ccccc1)NC(=O)[C@H](CC(N)=O)NC(=O)[C@@H]1CCCN1C(=O)[C@H](CO)NC(=O)[C@H](CO)NC(=O)[C@H](Cc1c[nH]cn1)NC(=O)[C@H](CCCNC(=N)N)NC(=O)[C@H](CC(C)C)NC(=O)[C@H](Cc1ccccc1)NC(=O)[C@H](CO)NC(=O)[C@H](C)NC(=O)[C@H](CC(C)C)NC(=O)[C@H](CCCNC(=N)N)NC(=O)[C@H](CCC(N)=O)NC(=O)[C@@H](NC(=O)[C@H](C)NC(=O)[C@@H]1CSSC[C@H](NC(=O)[C@@H](N)CCCCNC(=O)COCCOCCNC(=O)CC[C@H](NC(=O)CCCCCCCCCCCCCCCCCCC(=O)O)C(=O)O)C(=O)N[C@@H](CC(N)=O)C(=O)N[C@@H]([C@@H](C)O)C(=O)N[C@@H](C)C(=O)N[C@@H]([C@@H](C)O)C(=O)N1)[C@@H](C)O)C(=O)N1CCC[C@H]1C(=O)N[C@@H](CO)C(=O)N[C@@H](CO)C(=O)N[C@H](C(=O)N1CCC[C@H]1C(=O)N[C@H](C(=O)NCC(=O)N[C@@H](CO)C(=O)N[C@@H](CC(N)=O)C(=O)N[C@H](C(=O)N[C@@H](Cc1ccc(O)cc1)C(N)=O)[C@@H](C)O)C(C)C)[C@@H](C)O
# notes: also called compound 73
# B2: N^ε1-[(4S)-4-carboxy-4-(19-carboxynonadecanoylamino)butanoyl]-[Arg14,Arg17,Pro21,Pro27]-h-amylin (peptide)
# peptide: K([γGlu-C20 diacid])CNTATCATQRLARFLRHSSPNFGAIPSSTNVGSNTY-NH2
# modifications: disulfide 2-7; N-terminus assumed
# SMILES: CC[C@H](C)[C@H](NC(=O)[C@H](C)NC(=O)CNC(=O)[C@H](Cc1ccccc1)NC(=O)[C@H](CC(N)=O)NC(=O)[C@@H]1CCCN1C(=O)[C@H](CO)NC(=O)[C@H](CO)NC(=O)[C@H](Cc1c[nH]cn1)NC(=O)[C@H](CCCNC(=N)N)NC(=O)[C@H](CC(C)C)NC(=O)[C@H](Cc1ccccc1)NC(=O)[C@H](CCCNC(=N)N)NC(=O)[C@H](C)NC(=O)[C@H](CC(C)C)NC(=O)[C@H](CCCNC(=N)N)NC(=O)[C@H](CCC(N)=O)NC(=O)[C@@H](NC(=O)[C@H](C)NC(=O)[C@@H]1CSSC[C@H](NC(=O)[C@@H](N)CCCCNC(=O)CC[C@H](NC(=O)CCCCCCCCCCCCCCCCCCC(=O)O)C(=O)O)C(=O)N[C@@H](CC(N)=O)C(=O)N[C@@H]([C@@H](C)O)C(=O)N[C@@H](C)C(=O)N[C@@H]([C@@H](C)O)C(=O)N1)[C@@H](C)O)C(=O)N1CCC[C@H]1C(=O)N[C@@H](CO)C(=O)N[C@@H](CO)C(=O)N[C@H](C(=O)N[C@@H](CC(N)=O)C(=O)N[C@H](C(=O)NCC(=O)N[C@@H](CO)C(=O)N[C@@H](CC(N)=O)C(=O)N[C@H](C(=O)N[C@@H](Cc1ccc(O)cc1)C(N)=O)[C@@H](C)O)C(C)C)[C@@H](C)O
# notes: also called compound 83
# B3: N^ε1-[(4S)-4-carboxy-4-(19-carboxynonadecanoylamino)butanoyl]-[Arg14,Arg17,Pro21,Pro27,Pro34]-h-amylin (peptide)
# peptide: K([γGlu-C20 diacid])CNTATCATQRLARFLRHSSPNFGAIPSSTNVGPNTY-NH2
# modifications: disulfide 2-7; N-terminus assumed
# SMILES: CC[C@H](C)[C@H](NC(=O)[C@H](C)NC(=O)CNC(=O)[C@H](Cc1ccccc1)NC(=O)[C@H](CC(N)=O)NC(=O)[C@@H]1CCCN1C(=O)[C@H](CO)NC(=O)[C@H](CO)NC(=O)[C@H](Cc1c[nH]cn1)NC(=O)[C@H](CCCNC(=N)N)NC(=O)[C@H](CC(C)C)NC(=O)[C@H](Cc1ccccc1)NC(=O)[C@H](CCCNC(=N)N)NC(=O)[C@H](C)NC(=O)[C@H](CC(C)C)NC(=O)[C@H](CCCNC(=N)N)NC(=O)[C@H](CCC(N)=O)NC(=O)[C@@H](NC(=O)[C@H](C)NC(=O)[C@@H]1CSSC[C@H](NC(=O)[C@@H](N)CCCCNC(=O)CC[C@H](NC(=O)CCCCCCCCCCCCCCCCCCC(=O)O)C(=O)O)C(=O)N[C@@H](CC(N)=O)C(=O)N[C@@H]([C@@H](C)O)C(=O)N[C@@H](C)C(=O)N[C@@H]([C@@H](C)O)C(=O)N1)[C@@H](C)O)C(=O)N1CCC[C@H]1C(=O)N[C@@H](CO)C(=O)N[C@@H](CO)C(=O)N[C@H](C(=O)N[C@@H](CC(N)=O)C(=O)N[C@H](C(=O)NCC(=O)N1CCC[C@H]1C(=O)N[C@@H](CC(N)=O)C(=O)N[C@H](C(=O)N[C@@H](Cc1ccc(O)cc1)C(N)=O)[C@@H](C)O)C(C)C)[C@@H](C)O
# notes: also called compound 65
# B4: N^ε1-[2-[2-[2-[[(4S)-4-carboxy-4-(19-carboxynonadecanoylamino)butanoyl]amino]ethoxy]ethoxy]acetyl]-[Thr14,Arg17,Pro21,Pro27,Pro31]-h-amylin (peptide)
# peptide: K([AEEA-γGlu-C20 diacid])CNTATCATQRLATFLRHSSPNFGAIPSSTPVGSNTY-NH2
# modifications: disulfide 2-7; N-terminus assumed
# SMILES: CC[C@H](C)[C@H](NC(=O)[C@H](C)NC(=O)CNC(=O)[C@H](Cc1ccccc1)NC(=O)[C@H](CC(N)=O)NC(=O)[C@@H]1CCCN1C(=O)[C@H](CO)NC(=O)[C@H](CO)NC(=O)[C@H](Cc1c[nH]cn1)NC(=O)[C@H](CCCNC(=N)N)NC(=O)[C@H](CC(C)C)NC(=O)[C@H](Cc1ccccc1)NC(=O)[C@@H](NC(=O)[C@H](C)NC(=O)[C@H](CC(C)C)NC(=O)[C@H](CCCNC(=N)N)NC(=O)[C@H](CCC(N)=O)NC(=O)[C@@H](NC(=O)[C@H](C)NC(=O)[C@@H]1CSSC[C@H](NC(=O)[C@@H](N)CCCCNC(=O)COCCOCCNC(=O)CC[C@H](NC(=O)CCCCCCCCCCCCCCCCCCC(=O)O)C(=O)O)C(=O)N[C@@H](CC(N)=O)C(=O)N[C@@H]([C@@H](C)O)C(=O)N[C@@H](C)C(=O)N[C@@H]([C@@H](C)O)C(=O)N1)[C@@H](C)O)[C@@H](C)O)C(=O)N1CCC[C@H]1C(=O)N[C@@H](CO)C(=O)N[C@@H](CO)C(=O)N[C@H](C(=O)N1CCC[C@H]1C(=O)N[C@H](C(=O)NCC(=O)N[C@@H](CO)C(=O)N[C@@H](CC(N)=O)C(=O)N[C@H](C(=O)N[C@@H](Cc1ccc(O)cc1)C(N)=O)[C@@H](C)O)C(C)C)[C@@H](C)O
# notes: also called compound 75
# B5: N^ε1-[(4S)-4-carboxy-4-(19-carboxynonadecanoylamino)butanoyl]-[Ala14,Arg17,Pro21,Pro27,His34]-h-amylin (peptide)
# peptide: K([γGlu-C20 diacid])CNTATCATQRLAAFLRHSSPNFGAIPSSTNVGHNTY-NH2
# modifications: disulfide 2-7; N-terminus assumed
# SMILES: CC[C@H](C)[C@H](NC(=O)[C@H](C)NC(=O)CNC(=O)[C@H](Cc1ccccc1)NC(=O)[C@H](CC(N)=O)NC(=O)[C@@H]1CCCN1C(=O)[C@H](CO)NC(=O)[C@H](CO)NC(=O)[C@H](Cc1c[nH]cn1)NC(=O)[C@H](CCCNC(=N)N)NC(=O)[C@H](CC(C)C)NC(=O)[C@H](Cc1ccccc1)NC(=O)[C@H](C)NC(=O)[C@H](C)NC(=O)[C@H](CC(C)C)NC(=O)[C@H](CCCNC(=N)N)NC(=O)[C@H](CCC(N)=O)NC(=O)[C@@H](NC(=O)[C@H](C)NC(=O)[C@@H]1CSSC[C@H](NC(=O)[C@@H](N)CCCCNC(=O)CC[C@H](NC(=O)CCCCCCCCCCCCCCCCCCC(=O)O)C(=O)O)C(=O)N[C@@H](CC(N)=O)C(=O)N[C@@H]([C@@H](C)O)C(=O)N[C@@H](C)C(=O)N[C@@H]([C@@H](C)O)C(=O)N1)[C@@H](C)O)C(=O)N1CCC[C@H]1C(=O)N[C@@H](CO)C(=O)N[C@@H](CO)C(=O)N[C@H](C(=O)N[C@@H](CC(N)=O)C(=O)N[C@H](C(=O)NCC(=O)N[C@@H](Cc1c[nH]cn1)C(=O)N[C@@H](CC(N)=O)C(=O)N[C@H](C(=O)N[C@@H](Cc1ccc(O)cc1)C(N)=O)[C@@H](C)O)C(C)C)[C@@H](C)O
# notes: also called compound 93
# B6: N^ε1-[(4S)-4-carboxy-4-(19-carboxynonadecanoylamino)butanoyl]-[Arg14,Arg17,Pro21,Pro27,Pro31]-h-amylin (peptide)
# peptide: K([γGlu-C20 diacid])CNTATCATQRLARFLRHSSPNFGAIPSSTPVGSNTY-NH2
# modifications: disulfide 2-7; N-terminus assumed
# SMILES: CC[C@H](C)[C@H](NC(=O)[C@H](C)NC(=O)CNC(=O)[C@H](Cc1ccccc1)NC(=O)[C@H](CC(N)=O)NC(=O)[C@@H]1CCCN1C(=O)[C@H](CO)NC(=O)[C@H](CO)NC(=O)[C@H](Cc1c[nH]cn1)NC(=O)[C@H](CCCNC(=N)N)NC(=O)[C@H](CC(C)C)NC(=O)[C@H](Cc1ccccc1)NC(=O)[C@H](CCCNC(=N)N)NC(=O)[C@H](C)NC(=O)[C@H](CC(C)C)NC(=O)[C@H](CCCNC(=N)N)NC(=O)[C@H](CCC(N)=O)NC(=O)[C@@H](NC(=O)[C@H](C)NC(=O)[C@@H]1CSSC[C@H](NC(=O)[C@@H](N)CCCCNC(=O)CC[C@H](NC(=O)CCCCCCCCCCCCCCCCCCC(=O)O)C(=O)O)C(=O)N[C@@H](CC(N)=O)C(=O)N[C@@H]([C@@H](C)O)C(=O)N[C@@H](C)C(=O)N[C@@H]([C@@H](C)O)C(=O)N1)[C@@H](C)O)C(=O)N1CCC[C@H]1C(=O)N[C@@H](CO)C(=O)N[C@@H](CO)C(=O)N[C@H](C(=O)N1CCC[C@H]1C(=O)N[C@H](C(=O)NCC(=O)N[C@@H](CO)C(=O)N[C@@H](CC(N)=O)C(=O)N[C@H](C(=O)N[C@@H](Cc1ccc(O)cc1)C(N)=O)[C@@H](C)O)C(C)C)[C@@H](C)O
# notes: also called compound 63
# Molecular target: T1, human amylin receptor (amylin 3(a) …)
# Experiment: cell-based or functional assay
hAmylin-R funct. EC50,Ratio hCT/hAmylin funct.,Binder
85 pM,,B1
405 pM,41.6,B2
242 pM,,B3
296 pM,,B4
118 pM,9.7,B5
37 pM,,B6

# Molecular target: T2, human calcitonin receptor
# Experiment: cell-based or functional assay
row,hCTR funct. EC50,Binder
1,0.961 nM,B1
2,16.8 nM,B2
3,9.33 nM,B3
4,9.07 nM,B4
5,1.15 nM,B5
6,5.13 nM,B6
